Patent US20020142429

Columns and labels:
[1] = molecular target: rabbit reticulocyte eEF-2, P55823
[2] = molecular target: Dictyostelium myosin (myosin heavy chains), P08799
Dictyostelium myosin (myosin heavy chains), P08799, sequence (P08799 whole entry): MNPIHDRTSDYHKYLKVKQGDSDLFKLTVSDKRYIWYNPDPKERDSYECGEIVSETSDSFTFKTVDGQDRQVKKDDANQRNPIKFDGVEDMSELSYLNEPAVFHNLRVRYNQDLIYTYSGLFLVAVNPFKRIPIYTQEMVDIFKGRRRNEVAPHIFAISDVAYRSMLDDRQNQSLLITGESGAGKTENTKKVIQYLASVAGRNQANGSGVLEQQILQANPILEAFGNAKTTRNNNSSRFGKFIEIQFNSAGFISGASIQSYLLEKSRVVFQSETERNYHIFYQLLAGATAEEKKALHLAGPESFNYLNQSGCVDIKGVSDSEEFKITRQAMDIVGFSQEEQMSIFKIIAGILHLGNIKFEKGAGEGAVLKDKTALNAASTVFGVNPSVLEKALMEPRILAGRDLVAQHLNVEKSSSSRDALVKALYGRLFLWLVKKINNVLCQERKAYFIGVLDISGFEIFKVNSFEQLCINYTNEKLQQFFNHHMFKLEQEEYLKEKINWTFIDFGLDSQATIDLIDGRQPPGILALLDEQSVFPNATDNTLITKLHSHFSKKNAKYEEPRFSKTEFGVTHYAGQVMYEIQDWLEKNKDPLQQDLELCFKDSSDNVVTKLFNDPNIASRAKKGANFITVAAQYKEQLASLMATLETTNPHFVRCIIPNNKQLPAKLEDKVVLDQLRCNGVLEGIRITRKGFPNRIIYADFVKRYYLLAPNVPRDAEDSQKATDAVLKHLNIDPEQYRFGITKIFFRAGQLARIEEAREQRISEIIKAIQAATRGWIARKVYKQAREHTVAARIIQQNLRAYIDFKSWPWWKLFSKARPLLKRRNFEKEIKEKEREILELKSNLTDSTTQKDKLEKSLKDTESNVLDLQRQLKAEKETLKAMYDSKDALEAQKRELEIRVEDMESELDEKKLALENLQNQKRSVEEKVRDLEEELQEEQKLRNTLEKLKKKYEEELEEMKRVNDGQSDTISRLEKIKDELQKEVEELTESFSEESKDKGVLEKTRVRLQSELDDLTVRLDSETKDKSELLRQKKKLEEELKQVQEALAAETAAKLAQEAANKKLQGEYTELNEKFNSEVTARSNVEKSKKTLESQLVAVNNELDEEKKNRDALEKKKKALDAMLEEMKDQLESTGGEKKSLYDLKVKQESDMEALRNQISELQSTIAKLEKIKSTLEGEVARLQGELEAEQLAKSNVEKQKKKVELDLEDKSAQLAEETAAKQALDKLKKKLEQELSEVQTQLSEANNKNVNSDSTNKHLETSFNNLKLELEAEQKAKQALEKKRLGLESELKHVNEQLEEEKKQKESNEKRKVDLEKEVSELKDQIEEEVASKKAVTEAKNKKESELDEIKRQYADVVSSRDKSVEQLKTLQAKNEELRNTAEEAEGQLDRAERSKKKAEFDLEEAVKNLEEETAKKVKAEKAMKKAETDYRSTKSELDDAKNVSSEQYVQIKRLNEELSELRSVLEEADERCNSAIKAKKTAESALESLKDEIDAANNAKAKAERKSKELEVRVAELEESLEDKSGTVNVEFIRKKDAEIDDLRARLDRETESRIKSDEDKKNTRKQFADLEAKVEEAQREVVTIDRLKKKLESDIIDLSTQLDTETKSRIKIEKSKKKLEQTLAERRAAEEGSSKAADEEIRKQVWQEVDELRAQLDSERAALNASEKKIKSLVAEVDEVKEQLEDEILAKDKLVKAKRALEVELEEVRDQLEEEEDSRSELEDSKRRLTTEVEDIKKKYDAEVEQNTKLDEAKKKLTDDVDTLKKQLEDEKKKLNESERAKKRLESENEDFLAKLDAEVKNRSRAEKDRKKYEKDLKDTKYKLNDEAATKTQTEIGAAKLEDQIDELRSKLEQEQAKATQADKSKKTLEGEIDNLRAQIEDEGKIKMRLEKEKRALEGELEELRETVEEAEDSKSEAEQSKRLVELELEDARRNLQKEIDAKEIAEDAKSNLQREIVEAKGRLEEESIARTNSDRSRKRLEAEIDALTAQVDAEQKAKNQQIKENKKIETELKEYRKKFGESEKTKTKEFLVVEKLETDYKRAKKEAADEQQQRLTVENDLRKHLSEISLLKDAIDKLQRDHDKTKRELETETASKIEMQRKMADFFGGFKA

B1: human eEF-2 kinase glutathione S-transferase fusion protein (protein)
chain: MADEDLIFRLEGVDGGQSPRAGHDGDSDGDSDDEEGYFICPITDDPSSNQNVNSKVNKYYSNLTKSERYSSSGSPANSFHFKEAWKHAIQKAKHMPDPWAEFHLEDIATERATRHRYNAVTGEWLDDEVLIKMASQPFGRGAMRECFRTKKLSNFLHAQQWKGASNYVAKRYIEPVDRDVYFEDVRLQMEAKLWGEEYNRHKPPKQVDIMQMCIIELKDRPGKPLFHLEHYIEGKYIKYNSNSGFVRDDNIRLTPQAFSHFTFERSGHQLIVVDIQGVGDLYTDPQIHTETGTDFGDGNLGVRGMALFFYSHACNRICESMGLAPFDLSPRERDAVNQNTKLLQSAKTILRGTEEKCGSPQVRTLSGSRPPLLRPLSENSGDENMSDVTFDSLPSSPSSATPHSQKLDHLHWPVFSDLDNMASRDHDHLDNHRESENSGDSGYPSEKRGELDDPEPREHGHSYSNRKYESDEDSLGSSGRVCVEKWNLLNSSRLHLPRASAVALEVQRLNALDLEKKIGKSILGKVHLAMVRYHEGGRFCEKGEEWDQESAVFHLEHAANLGELEAIVGLGLMYSQLPHHILADVSLKETEENKTKGFDYLLKAAEAGDRQSMILVARAFDSGQNLSPDRCQDWLEALHWYNTALEMTDCDEGGEYDGMQDEPRYMMLAREAEMLFTGGYGLEKDPQRSGDLYTQAAEAAMEAMKGRLANQYYQKAEEAWAQMEE
- phosphorylation of eEF-2 and autophosphorylation, dependence on calmodulin (calmodulin): the ability of the recombinant enzyme to phosphorylate eEF-2 and to undergo autophosphorylation are strictly calmodulin-dependent (data not shown)
- ability to phosphorylate eEF-2 [1]: All of the fusion eEF-2 kinase preparations were able to efficiently phosphorylate eEF-2 (data not shown)
- phosphorylation of eEF-2 [1]: the ability of the recombinant enzyme to phosphorylate eEF-2 and to undergo autophosphorylation are strictly calmodulin-dependent (data not shown)

B2: human eEF-2 kinase thioredoxin fusion protein (protein)
chain: B1 chain
- ability to phosphorylate eEF-2 [1]: All of the fusion eEF-2 kinase preparations were able to efficiently phosphorylate eEF-2 (data not shown)

B3: human eEF-2 kinase 6xHis fusion protein (protein)
chain: B1 chain
- ability to phosphorylate eEF-2 [1]: All of the fusion eEF-2 kinase preparations were able to efficiently phosphorylate eEF-2 (data not shown)

B4: recombinant human eEF-2 kinase (expressed in a coupled transcription/translation system) (protein)
chain: B1 chain
- eEF-2 kinase activity in the presence and absence of Ca2+ and calmodulin (calmodulin): the recombinant human eEF-2 kinase activity was strictly Ca^2+/calmodulin-dependant

B5: recombinant C. elegans eEF-2 kinase (translation products of the mixture of Cefk-1 and Cefk-2) (protein)
chain: MTIDTTNESDNSPTNSPGLEASARTFSLNASKMVRITDDYADEVFIEQNDVVIEKPRMDPLHVRKLMETWRKAARRARTNYIDPWDEFNIHEYPVQRAKRYRYSAIRKQWTEDIVDVRLHPDSFARGAMRECYRLKKCSKHGTSQDWSSNYVAKRYICQVDRRVLFDDVRLQMDAKLWAEEYNRYNPPKKIDIVQMCVIEMIDVKGSPLYHLEHFIEGKYIKYNSNSGFVSNAARLTPQAFSHFTFERSGHQMMVVDIQGVGDLYTDPQIHTVVGTDYGDGNLGTRGMALFFHSHRCNDICETMDLSNFELSPPEIEATEVAMEVAAKQKKSCIVPPTVFEARRNRISSECVHVEHGISMDQLRKRKTLNQSSTDLSAKSHNEDCVCPECIPVVEQLCEPCSEDEEDEEEDYPRSEKSGNSQKSRRSRMSISTRSSGDESASRPRKCGFVDLNSLRQRHDSFRSSVGTYSMNSSRQTRDTEKDEFWKVLRKQSVPANILSLQLQQMAANLENDEDVPQVTGHQFSVLGQIHIDLSRYHELGRFVEVDSEHKEMLEGSENDARVPIKYDKQSAIFHLDIARKCGILEAVLTSAHIVLGLPHELLKEVTVDDLFPNGFGEQENGIRADKGQKPCDLEEFGSDLMEIAAEMGDKGAMLYMAHAYETGQHLGPNRRTDYKKSIDWYQRVVGFQEEEELDSDCGKTTFSSFAPLTRHEILAKMAEMYKEGGYGLNQDFERAYGLFNEAAEAAMEAMNGKLANKYYEKAEMCGE
- eEF-2 phosphorylation activity in the presence and absence of Ca2+ and calmodulin (calmodulin): The eEF-2 phosphorylation activity of the recombinant protein is Ca^2+/calmodulin-dependant
- eEF-2 kinase activity: phosphorylation of eEF-2 with [gamma-32P]ATP, SDS/PAGE and autoradiography [1]: The translation products of the mixture of Cefk-1 and Cefk-2 are able to phosphorylate eEF-2

B6: rabbit reticulocyte eEF-2 kinase (protein)
chain: ADEDLIFRLEGLGGHQSSQTGHDGDSDADSDEEEGYFICPITDDPQSNQNVNSKINNYYSNLTKSERYGSSGSPASSFHFKEAWKHAIEKAKHMPDPWAEFHLEDIATECATRHRYNAVTGEWLQDEVLIKMASQPFGRGAMRECFRTKKLSNFLHAQQWKGASNYVAKRYIESVDRDVYFEDVRLQMEAKLWGEEYNRHKPPKQVDIMQMCIIELTERPGKPLFHLEHYIEGKYIKYNSNSGFVRDDNIRLTPQAFSHFTFERSGHQLIVVDIQGVGDLYTDPQIHTETGTDFGDGNLGVRGMALFFYSHACNRICKSMGLAPFDLSPREQDAVNQNTKLLQSAKTILRGTEEKCGSPRVRTLSGSRPPLLLRLSENSGDENMSDVTFDSLPSSPSSATPHSQKLDHLHWPVFSDLDNMAAREQDHLDNQRDSENSGDSGYPSEKRSELDDPEPREHGHSNGNRRCESDEDSLGSSGRVCVEKWNLLNPSRLHLPRASAVALEVQRLNALDLERKIGKSVLGKVHLAMVRYHEGGRFCDRDEEWDRESAVFHLEHAADLGELEAIVGLGLMYSQLPHHILADVSLKDTKENKTKGFDYLLKAAEAGDRQSMILVARAFDTGQNLSPERSRDWQEALHWYNSALEMTDCDEGGEYDGVQDEPRYTLLAREAEMLFTGGCGLDKDPQRSGDLYTQAAEAAMEAMKGRLANQYYQKAEEAWAQMEE
- phosphorylation assay (substrate specificity), 10 min [2]: rabbit eEF-2 kinase cannot use myosin heavy chains as a substrate
- phosphorylation assay (substrate specificity), 10 min [1]: each of these kinases is specific for their respective substrates

B7: myosin heavy chain kinase A (MHCK A) from Dictyostelium (protein)
chain: MFNIKKRKESITGIPPINVNSPQSVPLSGTLQSPLITPNSPNFVSRQCPFKKFGCSSFLVSKAEFDNHLKDDAQFHLQLAVEKFDHQFDLHTQLMAHFTEQMEDQLEKTMKVVRNHTDSLGGNVQTKLDEGIEKCMAFAKKVEQQQQQLAKRLITQQIQEKKSTSSPLVKGGISGGGGSGGDDSFDGANISSMSTSKQELQQELQSLSIKMKKELTELSDELSQKLERSTGNIDIKIKRIEGEVNEKIDKRQLVSTIDDSIGKKTDSIGYTLESSIIKKVEEKEKKKSEQNQLLFDSKIESLKDKIKIIETQQLDTSSEVRKLKLESTSSGNLMAGLNGTSGRPSSSSHFIPSSVSAAANNINKNEIMEEVKKVEEKLQKKIREEIDNTKSELSKVERSVKDNRSEIEGLEKDCKNQFDKQDNKIKQVEDDLKKSDSLLLLMQNNLKKYNEFVDRERDRESERLKLQDSIKRLEQNQKKIEAEIQEGNEQVERVLREEASISPISSVPKSPITTKRSSIILNSPPMTSQQSSPKIQDLLSSSGSSSVSGINISSETGEMGILWEFDPIINKWIRLSMKLKVERKPFAEGALREAYHTVSLGVGTDENYPLGTTTKLFPPIEMISPISKNNEAMTQLKNGTKFVLKLYKKEAEQQASRELYFEDVKMQMVCRDWGNKFNQKKPPKKIEFLMSWVVELIDRSPSSNGQPILCSIEPLLVGEFKKNNSNYGAVLTNRSTPQAFSHFTYELSNKQMIVVDIQGVDDLYTDPQIHTPDGKGFGLGNLGKAGINKFITTHKCNAVCALLDLDVKLGGVLSGNNKKQLQQGTMVMPDILPELMPSDNTIKVGAKQLPKAEFSKKDLKCVSTIQSFRERVNSIAFFDNQKLLCAGYGDGTYRVFDVNDNWKCLYTVNGHRKSIESIACNSNYIFTSSPDNTIKVHIIRSGNTKCIETLVGHTGEVNCVVANEKYLFSCSYDKTIKVWDLSTFKEIKSFEGVHTKYIKTLALSGRYLFSGGNDQIIYVWDTETLSMLFNMQGHEDWVLSLHCTASYLFSTSKDNVIKIWDLSNFSCIDTLKGHWNSVSSCVVKDRYLYSGSEDNSIKVWDLDTLECVYTIPKSHSLGVKCLMVFNNQIISAAFDGSIKVWEWQSK
- phosphorylation assay (substrate specificity), 10 min [2]: each of these kinases is specific for their respective substrates
- phosphorylation assay (substrate specificity), 10 min [1]: MHCK A cannot phosphorylate eEF-2
